# Data reported in patent US20210230570.
# Positions count from the first letter of the chain named. In names and notes the source's numbering stands.
# B1: FIXa R318Y/R338E/R403E (protein)
# chain 1: YNSGKLEEFVQGNLERECMEEKCSFEEAREVFENTERTTEFWKQYVDGDQCESNPCLNGGSCKDDINSYECWCPFGFEGKNCELDVTCNIKNGRCEQFCKNSADNKVVCSCTEGYRLAENQKSCEPAVPFPCGRVSVSQTSKLTR
# chain 2: VVGGEDAKPGQFPWQVVLNGKVDAFCGGSIVNEKWIVTAAHCVETGVKITVVAGEHNIEETEHTEQKRNVIRIIPHHNYNAAINKYNHDIALLELDEPLVLNSYVTPICIADKEYTNIFLKFGSGYVSGWGRVFHKGYSALVLQYLRVPLVDRATCLESTKFTIYNNMFCAGFHEGGRDSCQGDSGGPHVTEVEGTSFLTGIISWGEECAMKGKYGIYTKVSEYVNWIKEKTKLT
# B2: FIXa-D104N/K106S/R318Y/R338E/E410N (protein)
# chain 1: B1 chain 1 with D104N, K106S
# chain 2: B1 chain 2 with E223R, E230N
# B3: FIXa-K247N/N249S/R318Y/R338E/R403E (protein)
# chain 1: B1 chain 1
# chain 2: B1 chain 2 with K67N, N69S
# B4: FIXa-D203N/F205T/R338A (protein)
# chain 1: B1 chain 1
# chain 2: B1 chain 2 with D23N, F25T, Y138R, E158A, E223R
# B5: FIXa-D104N/K106S/Y155F/R318Y/R338E/R403E/E410N (protein)
# chain 1: B1 chain 1 with D104N, K106S
# chain 2: B1 chain 2 with E230N
# B6: FIXa-R338E/R403E/E410N (protein)
# chain 1: B1 chain 1
# chain 2: B1 chain 2 with Y138R, E230N
# B7: FIXa R318Y/R338E/R403E/E410N (protein)
# chain 1: B1 chain 1
# chain 2: B1 chain 2 with E230N
# B8: FIXa R318Y/R338E/E410N (protein)
# chain 1: B1 chain 1
# chain 2: B1 chain 2 with E223R, E230N
# B9: FIXa-R318Y/R338E/R403E (protein)
# chain 1: B1 chain 1
# chain 2: B1 chain 2
# B10: FIXa-K228N/R338E/R403E (protein)
# chain 1: B1 chain 1
# chain 2: B1 chain 2 with K48N, Y138R
# B11: FIXa-Y155F/R318Y/R338E/R403E (protein)
# chain 1: B1 chain 1
# chain 2: B1 chain 2
# B12: FIXa-D203N/F205T/R338E/R403E (protein)
# chain 1: B1 chain 1
# chain 2: B1 chain 2 with D23N, F25T, Y138R
# B13: FIXa-K247N/N249S/R318Y/R403E/E410N (protein)
# chain 1: B1 chain 1
# chain 2: B1 chain 2 with K67N, N69S, E158R, E230N
# B14: FIXa-K228N/R318Y/E410N (protein)
# chain 1: B1 chain 1
# chain 2: B1 chain 2 with K48N, E158R, E223R, E230N
# B15: FIXa-D104N/K106S/R318Y/R338E/R403E/E410N (protein)
# chain 1: B1 chain 1 with D104N, K106S
# chain 2: B1 chain 2 with E230N
# B16: FIXa-Y155F/R318Y/R338E/E410N (protein)
# chain 1: B1 chain 1
# chain 2: B1 chain 2 with E223R, E230N
# B17: FIXa-A103N/N105S/Y155F/R318Y/R338E/R403E/E410N (protein)
# chain 1: B1 chain 1 with A103N, N105S
# chain 2: B1 chain 2 with E230N
# B18: FIXa-D203N/F205T/K228N (protein)
# chain 1: B1 chain 1
# chain 2: B1 chain 2 with D23N, F25T, K48N, Y138R, E158R, E223R
# B19: FIXa-D203N/F205T/R318Y (protein)
# chain 1: B1 chain 1
# chain 2: B1 chain 2 with D23N, F25T, E158R, E223R
# B20: FIXa-D203N/F205T/R338E (protein)
# chain 1: B1 chain 1
# chain 2: B1 chain 2 with D23N, F25T, Y138R, E223R
# B21: FIXa-Y155F/K247N/N249S/R318Y/R403E/E410N (protein)
# chain 1: B1 chain 1
# chain 2: B1 chain 2 with K67N, N69S, E158R, E230N
# B22: FIXa-Y155F/R338E/R403E/E410N (protein)
# chain 1: B1 chain 1
# chain 2: B1 chain 2 with Y138R, E158R, R178E, E230N
# B23: FIXa-A103N/N105S/R318Y/R338E/R403E/E410N (protein)
# chain 1: B1 chain 1 with A103N, N105S
# chain 2: B1 chain 2 with E230N
# B24: FIXa-D203N/F205T/R318Y/E410N (protein)
# chain 1: B1 chain 1
# chain 2: B1 chain 2 with D23N, F25T, E158R, E223R, E230N
# B25: FIXa-Y155F/R318Y/R338E/R403E/E410N (protein)
# chain 1: B1 chain 1
# chain 2: B1 chain 2 with E230N
# B26: FIXa-D203N/F205T/E410N (protein)
# chain 1: B1 chain 1
# chain 2: B1 chain 2 with D23N, F25T, Y138R, E158R, E223R, E230N
# B27: FIXa-Y155F/K247N/N249S/R318Y/R338E/R403E (protein)
# chain 1: B1 chain 1
# chain 2: B1 chain 2 with K67N, N69S
# Tests used:
# [1] = biological target: antithrombin III (plasma purified human AT-III), in complex with unfractionated heparin
# Sequence of Factor X, P00742 (P00742 whole entry, looked up): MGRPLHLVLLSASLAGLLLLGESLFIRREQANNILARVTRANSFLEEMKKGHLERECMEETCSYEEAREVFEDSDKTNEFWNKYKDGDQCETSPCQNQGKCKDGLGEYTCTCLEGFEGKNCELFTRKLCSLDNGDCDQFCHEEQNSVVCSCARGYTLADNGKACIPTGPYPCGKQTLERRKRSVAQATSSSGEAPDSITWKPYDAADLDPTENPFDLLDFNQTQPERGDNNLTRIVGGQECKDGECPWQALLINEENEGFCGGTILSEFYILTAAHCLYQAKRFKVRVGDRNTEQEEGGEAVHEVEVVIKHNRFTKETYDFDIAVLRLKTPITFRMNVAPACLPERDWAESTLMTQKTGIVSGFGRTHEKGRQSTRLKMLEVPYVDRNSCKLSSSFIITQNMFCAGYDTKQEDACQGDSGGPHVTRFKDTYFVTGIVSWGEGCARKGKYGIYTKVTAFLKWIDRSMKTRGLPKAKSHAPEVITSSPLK
# Sequence of Factor X (FX), P00742 (P00742 whole entry, looked up): as above
Protein,"kcat (Factor X, P00742) [s⁻¹]","KM (Catalytic activity of FIXa variants) (Factor X, P00742) [µM]",K0.5 [1] [nM],K0.5-mut/K0.5-wt [1],"kcat/KM (M^-1s^-1), FX activation by FIXa in the Xase complex (Factor X (FX), P00742) [M⁻¹ s⁻¹]","kcat/KM (Factor X, P00742) [M⁻¹ s⁻¹]","KM (Factor X (FX), P00742) [µM]","kcat of FX activation by FIXa in the Xase complex (FVIIIa, PC/PS vesicles, Ca2+) (Factor X (FX), P00742) [s⁻¹]","% of WT (kcat/KM) (Factor X, P00742) [%]","kcat/KM for FX activation (Xase assay with FVIIIa, PC/PS vesicles, Ca2+) (Factor X (FX), P00742) [M⁻¹ s⁻¹]"
B1,3.5,,,,,,,,,
B2,,0.0189,6330,327,2.6e+08,,,,,
B3,,,,,,2.3e+08,0.0536,10.5,,
B4,,0.0385,423,21.9,,6.2e+07,,,135,6.2e+07
B5,,0.048,,,1.8e+08,,,,,
B6,,0.0455,2350,122,,1.9e+08,,,411,7.8e+07
B7,5,,,,,,,,,
B8,4.6,,,,,,,,,
B9,,0.0537,> 10000,> 517,,6.2e+07,,,134,6.5e+07
B10,,0.0592,1680,86.8,,,,,105,4.8e+07
B11,,,,,,8.7e+07,,,189,
B12,,0.0511,1520,78.6,,1.9e+07,,,41,1.9e+07
B13,,,,,,2.7e+07,0.111,2.9,,
B14,,0.042,475,24.6,1.2e+08,,,,,
B15,,0.0385,,,1.7e+08,,,,,
B16,,0.016,1100,56.8,3.7e+08,,,,,
B17,,0.0507,,,1.3e+08,,,,,
B18,,0.0399,822,42.5,,1.4e+07,,,30,1.4e+07
B19,,0.0475,7230,374,,2e+07,,,44,2e+07
B20,,0.0241,1170,60.5,,1e+08,,,228,1e+08
B21,,,,,,1e+07,0.125,1.2,,
B22,,,,,,1.8e+08,,,401,
B23,,0.0447,,,1.5e+08,,,,,
B24,,0.0457,,,3.9e+07,,,,,
B25,,0.0304,,,1.9e+08,,,,,
B26,,0.0455,377,19.5,,4.2e+07,,,91,4.2e+07
B27,,,,,,9.5e+07,0.0673,5.7,,
